Measurements: US20210324359A1, “USE OF GRAM-NEGATIVE LYSIN-ANTIMICROBIAL PEPTIDE (AMP) POLYPEPTIDE CONSTRUCTS IN TREATING ENDOCARDITIS” (priority 2020, published 2021)

Experiments:
[1] = test system: Pseudomonas aeruginosa strain CFS-1292 (meropenem resistant); conditions: strain CFS-1292; no added cations
Description: The activity of selected GN lysins and constructs in the presence of divalent cations was evaluated, and the impact of divalent cations at physiological concentrations was examined in the MIC assay format.

[2] = test system: P. aeruginosa strain WC-453; assay: Time-kill assay in HEPES or CAA with 25% human serum (Tables 7, 8); assay type: cell-based, Pseudomonas aeruginosa
Description: Exponential phase bacteria were then pelleted and resuspended in 1/5 culture volume of 25 mM HEPES, pH 7.4 before a final adjustment to an optical density corresponding to a McFarland value of 0.5. […] All treatments were incubated at 37° C. with aeration. At time points before the addition of lysin (or buffer control) and at 1 hour and 3 hours intervals thereafter, culture samples were removed for quantitative plating on CAA agar plates.

[3] = test system: Pseudomonas aeruginosa strain CFS-1292 (meropenem resistant); assay: MIC in 25% CAA alone, with […] human serum or […] SURVANTA (Table 13); assay type: cell-based
Description: Materials and methods: MICs were determined by broth microdilution in media supplemented with human serum and pulmonary surfactant ([…]®; Myoderm Clinical Supplies). Minimal biofilm eradicating concentrations (MBECs) were determined using standard methods. […] Fluorescence microscopy was performed after LIVE/DEAD staining (ThermoFisher) and TEM was performed.

[4] = test system: outer membrane of P. aeruginosa (CFS 1292); assay: N-phenyl-1-napthylamine (NPN) uptake assay, outer membrane destabilization (Table 15); assay type: cell-based, Pseudomonas aeruginosa; conditions: NPN fluorescence, buffer = 100, lysin 100 μg/well
Description: The ability of gram-negative lysins to destabilize the outer membrane of P. aeruginosa was evaluated through the use of an N-phenyl-1-napthylamine (NPN) uptake assay. […] NPN was added to a final concentration of […]. […] Changes in fluorescence were recorded (excitation 1=350 nm; emission 1=420 nm) over two hours.

P. aeruginosa strains = assay: Checkerboard synergy with meropenem in 25% CAA and […] human serum (Table 16); assay type: cell-based, Pseudomonas aeruginosa; conditions: for FICI value (Run #1), with meropenem / FICI value (Run #2), with meropenem: 25% CAA and […] human serum
[5] = test system: Pseudomonas aeruginosa strain 1292; conditions: 10 μg/mL, 15 minutes, 100% human serum
Description: Samples were stained using the Live/Dead Cell Viability Kit (ThermoFisher) and examined by both differential interference contrast (DIC) and fluorescence microscopy.

B1: GN121: variant lysin (SEQ ID NO: 175), also disclosed in WO 2019/118632 (protein)
chain: MTYTLSKRSLDNLKGVHPDLVAVVHRAIQLTPVDFAVIEGLRSVSRQKELVAAGASKTMNSRHLTGHAVDLAAYVNGIRWDWPLYDAIAVAVKAAAKELGVAIVWGGDWTTFKDGPHFELDRSKYRRKKTRKRLKKIGKVLKWI
For B1, the “MIC in 25% CAA” value [1] was 1 to 2 mg/L, the “bactericidal activity (CFU decrease of 3-Log10, 3 hours after the addition of lysin)” value ([2]; 10 μg/mL, enumerated lysins in CAA/HuS, general statement for HEPES and CAA/HuS) was “bactericidal activity” and the “HEPES (Log10 CFU/mL), 1 hr” value ([2]; 25 mM HEPES pH 7.4, lysin 10 μg/ml, 1 hr, WC-453) was under 3.7 Log10 CFU/mL. The “HEPES (Log10 CFU/mL), 3 hr” value ([2]; 25 mM HEPES pH 7.4, lysin 10 μg/ml, 3 hr, WC-453) was under 3.7 Log10 CFU/mL, the “CAA/HuS (Log10 CFU/mL), 1 hr” value ([2]; CAA + 25% human serum, lysin 10 μg/ml, 1 hr, WC-453) was 7.6 Log10 CFU/mL and the “CAA/HuS (Log10 CFU/mL), 3 hr” value ([2]; CAA + 25% human serum, lysin 10 μg/ml, 3 hr, WC-453) was under 3.7 Log10 CFU/mL. The “MIC in […] Survanta” value [3] was 2 mg/L, the “MIC in human serum ([…]) in CAA” value [3] was 0.5 mg/L and the “activity in human serum and pulmonary surfactant” value [3] was “active in human serum and pulmonary surfactant”. For the same molecule, the “25% CAA MIC” value ([3]; media alone) was 1, the “% RFU” value ([4]; 5 minutes) was 370 % RFU and the “% RFU” value ([4]; 10 minutes) was 500 % RFU. The “% RFU” value ([4]; 20 minutes) was 528 % RFU, the “% RFU” value ([4]; 40 minutes) was 530 % RFU and the “% RFU” value ([4]; 60 minutes) was 565 % RFU. For the same molecule, the “% RFU” value ([4]; 100 minutes) was 557 % RFU, the synergy with meropenem (P. aeruginosa strains; FICI less than or equal to 0.5 = potent synergy) was “exhibited synergy with meropenem” and the “FICI value (Run #1), with meropenem” value (P. aeruginosa strains; strain CFS 1292) was 0.25. For the same molecule, the “FICI value (Run #2), with meropenem” value (P. aeruginosa strains; strain CFS 1292) was 0.292, the “FICI value (Run #1), with meropenem” value (P. aeruginosa strains; strain CFS 1557 (PA19)) was 0.375 and the “FICI value (Run #2), with meropenem” value (P. aeruginosa strains; strain CFS 1557 (PA19)) was 0.427. For the same molecule, the “FICI value (Run #1), with meropenem” value (P. aeruginosa strains; strain CFS 1558 (PA20)) was 0.125, the “FICI value (Run #2), with meropenem” value (P. aeruginosa strains; strain CFS 1558 (PA20)) was 0.156 and the “FICI value (Run #2), with meropenem” value (P. aeruginosa strains; strain CFS 1559 (PA21)) was 0.229. For the same molecule, the “FICI value (Run #2), with meropenem” value (P. aeruginosa strains; strain CFS 1560 (PA22)) was 0.313, the “FICI value (Run #2), with meropenem” value (P. aeruginosa strains; strain CFS 1561 (PA23)) was 0.198 and the “FICI value (Run #2), with meropenem” value (P. aeruginosa strains; strain CFS 1562 (PA24)) was 0.214. The “FICI value (Run #2), with meropenem” value (P. aeruginosa strains; strain CFS 1766 (ATCC 27853)) was 0.229 and the “live/dead bacteria by microscopy” value [5] was “a reduction of live bacteria”.
